Test results from publication PMC1185577 (Nucleic Acids Research, 2005).

Molecular target: T1, glutathione S-transferase (GST)-L5 (S. cerevisiae, UniProt P26321 1-297)
T1 sequence (looked up): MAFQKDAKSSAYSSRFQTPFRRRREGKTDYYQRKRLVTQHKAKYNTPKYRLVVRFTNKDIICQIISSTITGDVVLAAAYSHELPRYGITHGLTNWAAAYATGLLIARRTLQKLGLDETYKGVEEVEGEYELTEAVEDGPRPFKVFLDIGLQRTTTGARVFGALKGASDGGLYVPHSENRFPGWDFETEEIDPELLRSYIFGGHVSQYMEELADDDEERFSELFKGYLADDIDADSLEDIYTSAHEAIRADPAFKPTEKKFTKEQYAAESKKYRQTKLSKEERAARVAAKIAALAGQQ
Test: pull-down

binding result: binds
B1: maltose-binding protein (MBP)-Rrs1p (natural protein, S. cerevisiae, UniProt Q08746 1-203, looked up)
chain: MSAEDYKNLPVTVEKPIPVVYDLGNLAAFDSNVLDKNDLDSSNARREEKIKSLTRDNVQLLINQLLSLPMKTTTESVGGTGGQSSVMTLLQLPDPTTDLPREKPLPKAKAMTKWEKFAAKKGIKPKERAGKMIYDEASGEWVPKWGYKGANKKLDDQWLVEVDDKVKGTDNELIDPRTLNRAERKRLVKKNEKQQRRNMKNAL
